Molecular target: T1, recombinant human IL-6 (human, UniProt P05231 30-212, labeled with radioactive iodine)
T1 construct: Labeled probe in solution, added to wells that carry the synthetic peptides; also called IL-6 ligand; Interleukin-6
Test: radioiodinated IL-6 on peptide array
Protocol: Synthetic peptide arrays were constructed in 96-well microtiter plates in accordance with the method set forth in WO 91/02714 (Saxinger), and used to test the binding of recombinant human IL-6 that had been labeled with radioactive iodine (radiolabeling by standard methods). After incubating the radiolabeled IL-6 ligand in a well with each synthetic peptide, a washing step was performed to remove unbound label, and the relative level of radioactivity remaining in each well of the plate was evaluated to determine the relative affinity of each peptide for IL-6 ligand.

| Binder | Counts/minute bound [counts/minute] |
| --- | --- |
| SSFYRLRF [Peptide C14] | 952 |
| RSKTFT (also called RSKTFT) [Peptide C32] | 1340 |
| SSFYRL (also called SSFYRL) [Peptide C16] | 865 |
| AAGSHPSRWAGM [Peptide A10] | 1440 |
| SSFYRLRFELRYRAER [Peptide C6] | 2650 |
| SSFYRLRFELR [Peptide C11] | 1130 |
| SSFYRLRFELRY [Peptide C10] | 1350 |
| AAGSHPSRWAGMGR [Peptide A8] | 1480 |
| AAGSHPSRWAGMGRRLLLR [Peptide A3] | 8010 |
| AAGSHPSRWAGMGRRLLL [Peptide A4] | 5280 |
| YRLRFELRYRAERSKTFT [Peptide C20] | 7570 |
| SSFYRLRFELRYRAERSKT [Peptide C3] | 8210 |
| AAGSHPSRWAGMG [Peptide A9] | 1470 |
| LRYRAERSKTFT [Peptide C26] | 6380 |
| RLRFELRYRAERSKTFT [Peptide C21] | 5990 |
| SSFYRLRFELRYRAERSK [Peptide C4] | 7620 |
| YRAERSKTFT [Peptide C28] | 2400 |
| ERSKTFT (also called ERSKTFT) [Peptide C31] | 1030 |
| SFYRLRFELRYRAERSKTFT [Peptide C18] | 12800 |
| RFELRYRAERSKTFT [Peptide C23] | 5310 |
| ELRYRAERSKTFT [Peptide C25] | 2200 |
| FYRLRFELRYRAERSKTFT [Peptide C19] | 10100 |
| SSFYRLRFELRYR [Peptide C9] | 2170 |

| Binder | Counts/minute bound [counts/minute] |
| --- | --- |
| SSFYRLRFELRYRAERSKTF [Peptide C2] | 13800 |
| FELRYRAERSKTFT [Peptide C24] | 5110 |
| SSFYRLR (also called SSFYRLR) [Peptide C15] | 991 |
| SSFYRLRFELRYRAE [Peptide C7] | 1820 |
| SSFYRLRFEL [Peptide C12] | 1030 |
| AAGSHPSRWAG [Peptide A11] | 1430 |
| SSFYRLRFELRYRAERS [Peptide C5] | 4710 |
| RAERSKTFT [Peptide C29] | 1430 |
| SSFYRLRFE [Peptide C13] | 1020 |
| SSFYRLRFELRYRAERSKTFA [Peptide C34] | 17000 |
| SSFYRLRFELRYRAARSKTFT (alanine-scan variant of the domain III 21-mer) [Peptide C40] | 17300 |
| SSFYRLRFELRARAERSKTFT (alanine-scan variant of the domain III 21-mer) [Peptide C42] | 17500 |
| SSFYRLRFELAYRAERSKTFT (alanine-scan variant of the domain III 21-mer) [Peptide C43] | 7550 |
| SSFYRLRFELRYRAERAKTFT (alanine-scan variant of the domain III 21-mer) [Peptide C38] | 12300 |
| SSFYRLRFELRYRAERSATFT (alanine-scan variant of the domain III 21-mer) [Peptide C37] | 7220 |
| SSFYRLRFELRYRAERSKTAT (alanine-scan variant of the domain III 21-mer) [Peptide C35] | 14800 |
| SSFYRLRFALRYRAERSKTFT (alanine-scan variant of the domain III 21-mer) [Peptide C45] | 26800 |
| SSFYRLRFEARYRAERSKTFT (alanine-scan variant of the domain III 21-mer) [Peptide C44] | 14100 |
| SSFYRLRFELRYRAEASKTFT (alanine-scan variant of the domain III 21-mer) [Peptide C39] | 3430 |
| SSFYRLRFELRYRAERSKAFT (alanine-scan variant of the domain III 21-mer) [Peptide C36] | 15000 |
| SSFYRLRFELRYAAERSKTFT (alanine-scan variant of the domain III 21-mer) [Peptide C41] | 6740 |
| SSFYRLRAELRYRAERSKTFT (alanine-scan variant of the domain III 21-mer) [Peptide C46] | 13400 |
| SSFYRLAFELRYRAERSKTFT (alanine-scan variant of the domain III 21-mer) [Peptide C47] | 9760 |

| Binder | Counts/minute bound [counts/minute] |
| --- | --- |
| AAGSHPSRWAGMGRRLL [Peptide A5] | 2750 |
| SSFYRLRFELRYRA [Peptide C8] | 2510 |
| AERSKTFT [Peptide C30] | 1200 |
| LRFELRYRAERSKTFT [Peptide C22] | 9610 |
| RYRAERSKTFT [Peptide C27] | 3150 |
| AAGSHPSRWAGMGRRLLLRS [Peptide A2] | 9760 |
| AAGSHPSRWAGMGRR [Peptide A7] | 1340 |
| PRSTPSLTTKAVLLVRKFQNA (alanine-scan variant of the domain II 21-mer) [Peptide B34] | 11400 |
| PRSTPSLTTKAVLLVRKFQAS (alanine-scan variant of the domain II 21-mer) [Peptide B35] | 13200 |
| PRSTPSLTTKAALLVRKFQNS (alanine-scan variant of the domain II 21-mer) [Peptide B43] | 7160 |
| PRSTPSLTTKAVLLVRKFANS (alanine-scan variant of the domain II 21-mer) [Peptide B36] | 10100 |
| PRSTPSLTTAAVLLVRKFQNS (alanine-scan variant of the domain II 21-mer) [Peptide B44] | 19500 |
| PRSTPSLATKAVLLVRKFQNS (alanine-scan variant of the domain II 21-mer) [Peptide B46] | 7680 |
| PRSTPSLTTKAVLAVRKFQNS (alanine-scan variant of the domain II 21-mer) [Peptide B41] | 3760 |
| PRSTPSLTTKAVLLVRKAQNS (alanine-scan variant of the domain II 21-mer) [Peptide B37] | 11600 |
| PRSTPSATTKAVLLVRKFQNS (alanine-scan variant of the domain II 21-mer) [Peptide B47] | 8570 |
| PRSTPSLTTKAVLLVRAFQNS (alanine-scan variant of the domain II 21-mer) [Peptide B38] | 11100 |
| PRSTPSLTTKAVLLARKFQNS (alanine-scan variant of the domain II 21-mer) [Peptide B40] | 4540 |
| PRSTPSLTTKAVALVRKFQNS (alanine-scan variant of the domain II 21-mer) [Peptide B42] | 3840 |
| PRSTPSLTTKAVLLVAKFQNS (alanine-scan variant of the domain II 21-mer) [Peptide B39] | 10800 |
| PRSTPSLTAKAVLLVRKFQNS (alanine-scan variant of the domain II 21-mer) [Peptide B45] | 7490 |

Source: patent publication US20040092720A1 (US Dept. of Health and Human Services, published 2004)
